Test results: US8008452B2, “Phosphorylated Ndr kinase” (Novartis Forschungesstiftung, Zweigniederlassung Friedrich …, priority 2002, dated 2011)

What was measured:
GST-NDR1 [1] = assay: GST-NDR1 kinase assay (peptide kinase assay); format: biochemical, human; design: Specific activity of GST-NDR1 variants, CTRL / Specific activity of GST-NDR1 variants, −S100B / Specific activity of GST-NDR1 variants, +S100B: unit not given here
Description: 1 microgram of purified recombinant GST-NDR1 wild type and mutants (without further treatment or autophosphorylated for 2 h in the presence or absence of 1 mM CaCl2 and […] (Sigma)) were assayed in 20 microliter of reaction mixture containing 20 mM Tris-HCl pH 7.5, 10 mM MgCl2, 1 mM DTT, 100 microM [gamma-^32P]ATP (˜0.5 microCi/microliter), and 1 mM NDR1 substrate peptide ([…]; SEQ ID NO:22). After 30 mins incubation at 30° C., reactions were stopped with 50 mM EDTA, and 10 microliters of reaction mixture were spotted onto 2 cm^2 squares of P81 phosphocellulose paper (Whatman). These were subsequently washed for 4×5 min and 3×20 min in 1% phosphoric acid and once in acetone before counting in a liquid scintillation counter. One unit of NDR1 activity was defined as the amount which catalyses the phosphorylation of 1 nmol peptide substrate in 1 min.
Specific activity of GST-NDR1 mutants was also measured by a peptide kinase assay as described above. For this purpose, 1 microgram of purified GST-NDR1 wild type and alanine mutants were left without further treatment or autophosphorylated for 2 h in the presence or absence of 1 mM CaCl2 and […].

HA-NDR1 = HA-NDR1 kinase assay on 12CA5 immunoprecipitates from transfected, treated COS-1 cells; format: cell-based, human; design: kinase activity of HA-NDR1 variants, −OA: unit not given here; conditions: COS-1 cells
Description: In some experiments, the cells were treated for 60 min with 1 microM okadaic acid in 0.1% N,N-dimethylformamide (DMF) (Alexis Corp.), 50 microM BAPTA-AM (1,2-bis (o-aminophenoxy) ethane-N,N,N′,N′-tetraacetic acid tetra (acetoxy-methyl)ester) in 0.1% diimethylsulfoxide (DMSO; Sigma), or 20 microM thapsigargin in 0.1% DMSO (Alomone) 24 hours after transfection.
Transfected and treated COS-1 cells were washed once with ice-cold PBS, and harvested by rubber policeman in 1 ml ice-cold PBS containing 1 mM Na3VO4 and 20 mM beta-glycerophosphate before lysis in 500 microliters of IP buffer (20 mM Tris-HCl pH 8.0, 150 mM NaCl, 1% Nonidet P-40, 10% glycerol, 1 mM Na3VO4, 20 mM beta-glycerolphosphate, 1 microM microcystin-LR, 50 mM NaF, 0.5 mM PMSF, 4 microM leupeptin, 1 mM benzamidine, and 1 tablet/10 ml IP of Complete protease inhibitors (Roche)). Lysates were centrifuged at 20 000 g for 20 min and triplicate aliquots (200 microg) of supernatant were precleared with protein A-Sepharose (Amersham Pharmacia Biotech) for 60 min and mixed subsequently for 3 h at 4° C. with 12CA5 antibody prebound to protein A-Sepharose (˜1 microg antibody bound to 2 microl beads). The beads were then washed twice with IP buffer, once for 10 min with IP buffer containing 1 M NaCl, once again for 10 min with IP buffer, and finally twice with 20 mM Tris-HCl pH 7.5 containing 4 microM leupeptin and 1 mM benzamidine. Thereafter, beads were resuspended in 30 microliters buffer containing 20 mM Tris-HCl pH 7.5, 10 mM MgCl2, 1 mM DTT, 100 microM [gamma-^32P]ATP (˜0.1 microCi/microliter), 1 microM cAMP-dependent protein kinase inhibitor peptide PKI (Bachem), 4 microM leupeptin, 1 mM benzamidine, 1 microM microcystin-LR, and 1 mM NDR1 substrate peptide ([…]). After 60 min incubation at 30° C., 15 microliters of supernatant were removed, and phosphate incorporation into the substrate peptide determined as described for GST-NDR1 above.
COS-1 cells expressing either wild type HA-NDR1 or the indicated mutants were treated for 1 h with 1 microM okadaic acid or with solvent alone. HA-tagged NDR kinase variants were then immunoprecipitated (out of 100 microgram of detergent extracts) with 12CA5 monoclonal antibody and assayed for kinase activity by a peptide kinase assay as described above.
Mock-transfected or HA-NDR1-expressing COS-1 cells were treated for 1 h with […], 50 microM BAPTA-AM, and […] or with solvent (0.1% DMF or 0.1% DMSO) alone. 12CA5 immunoprecipitates (out of 100 microgram protein extract) were then assayed using the peptide kinase assay for NDR1 kinase activity.
To test whether hMOB1 plays a role in NDR activation, myc-hMOB1 or the empty vector was cotransfected with HA-NDR1 in COS1 cells and treated with OA. 12CA5 immunoprecipitates were then assayed using the peptide kinase assay for HA-NDR kinase activity. […] GST-MOB and GST respectively was added to immunoprecipitated HA-NDR and kinase reaction were performed. The reactions were resolved on a 10% SDS PAGE and the radioactivity visualised by using a phosphoimager.

GST-NDR1 [2] = assay: GST-NDR1 in vitro autophosphorylation, incorporated 32P by Cerenkov counting; format: biochemical, human; conditions: GST-NDR1 variant
Description: (§1) BL21-DE3-pRep4 E. coli strain was transformed with the pGEX-2T_NDR1 wild type or mutant plasmids. BL21-DE3 is a protease-deficient E. coli strain and pRep4 is a Laclq repressor-bearing plasmid both available commercially. Optionally, if desired, an E. coli strain comprising GroESL can be used, which expresses a chaperone protein that stabilizes the kinase. Mid-logarithmic phase cells were induced with 0.5 mM isopropyl beta-D-thiogalactopyranoside (IPTG) for 4 hours at 30° C. Bacteria were lysed using a French press in the presence of 1 mg/ml lysosyme, and the fusion proteins were purified on glutathione-agarose (Amersham Pharmacia Biotech) as described by the manufacturers. Recombinant proteins were assayed for kinase activity as described below and autophosphorylation was determined after SDS-PAGE separation either by Cerenkov counting or by exposure to a PhosphorImager screen followed by analysis with ImageQuant software (Molecular Dynamics).
(§2) In brief, 1 microgram of purified GST-NDR1 (in solution ˜0.5 microM) wild type, kinase dead (K118A), and alanine mutants of phosphorylation residues Thr74, Ser281, and Thr444 were autophosphorylated for 2 hours in vitro without further additions or in the presence of 1 mM CaCl2 and 10 microM bovine S100B. Proteins were visualized on SDS gels using Coomassie Blue R-350 stained SDS-PAGE gel, and [gamma-^32P]ATP-labelled proteins were visualized by autoradiography of the gels developed on a Phosphorimager screen. The amount of incorporated ^32P was quantified by Cerenkov counting.

GST-NDR1 [3] = target: T1, GST-NDR1 (Homo sapiens, UniProt Q15208); assay: as above; format: biochemical; conditions: in vitro
T1 construct: made in house; host or cells: E. coli BL21-DE3-pRep4
Description: as §1, §2

T1 sequence (Q15208 2-465): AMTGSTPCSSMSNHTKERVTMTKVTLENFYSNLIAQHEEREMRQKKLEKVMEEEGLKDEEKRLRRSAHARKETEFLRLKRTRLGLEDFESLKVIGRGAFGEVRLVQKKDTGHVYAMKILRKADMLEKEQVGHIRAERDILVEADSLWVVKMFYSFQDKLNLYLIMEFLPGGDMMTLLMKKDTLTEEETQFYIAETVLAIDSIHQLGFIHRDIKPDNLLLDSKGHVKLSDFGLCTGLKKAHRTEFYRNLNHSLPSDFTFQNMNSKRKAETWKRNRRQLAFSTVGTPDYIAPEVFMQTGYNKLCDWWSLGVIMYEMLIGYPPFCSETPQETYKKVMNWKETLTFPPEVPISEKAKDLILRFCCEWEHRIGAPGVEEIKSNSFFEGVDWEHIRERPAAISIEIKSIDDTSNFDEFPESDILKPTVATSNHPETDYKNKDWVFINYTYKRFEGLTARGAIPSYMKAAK

## WT: human NDR1 wild type; GST fusion in the 2nd table, the 3rd table, HA-tagged in the 4th table
GST-NDR1 [1]; autophosphorylated 2 h in the absence of CaCl2 and S100B
  Specific activity of GST-NDR1 variants, −S100B: 4.106
GST-NDR1 [1]; autophosphorylated 2 h in the presence of 1 mM CaCl2 and 10 mM bovine S100B
  Specific activity of GST-NDR1 variants, +S100B: 21.348
GST-NDR1 [1]; left without further treatment
  Specific activity of GST-NDR1 variants, CTRL: 1
HA-NDR1; 1 microM okadaic acid 1 h
  kinase activity of HA-NDR1 variants, +OA: 10.8852
HA-NDR1; solvent alone 1 h
  kinase activity of HA-NDR1 variants, −OA: 0.3532
GST-NDR1 [2]; 1 microgram, autophosphorylated 2 hours without further additions, pmol ATP/pmol GST-NDR1
  amount of incorporated 32P (autophosphorylation), −S100B: 0.1688
GST-NDR1 [2]; 2 hours in the presence of 1 mM CaCl2 and 10 microM bovine S100B, in pmol ATP/pmol GST-NDR1
  amount of incorporated 32P (autophosphorylation), +S100B: 0.3512
GST-NDR1 [3]
  autophosphorylation of wild-type GST-NDR1 in vitro: up to 0.4 pmol ATP/pmol GST-NDR1
